The results in this text go back to US10011602B2, “Immunological reagents and uses therefor” (THE UNIVERSITY OF MELBOURNE, priority 2012, dated 2018).

One test relates to MAIT TCR-BW hybridomas. The test can be described thus: MR1 tetramer staining of MAIT TCR-BW hybridomas. The class given is cell-based. To be noted: hybridomas from mouse Vα19iTG splenocytes fused with BW cell line. From the text: (§1) Wild-type human MR1 containing a C-terminal cysteine can be refolded with the addition of 5-amino-6-D-ribitylamino-uracil and pyruvaldehyde, using the standard refolding conditions described above, and then purified using the standard methods also described above. MR1 refolded in this way has rRL-6-CH2OH bound as determined by X-ray crystallography structural studies, and by electrospray ionization time-of-flight (ESI TOF) mass spectrometry. […] Excess biotin is removed by passing biotinylated protein through an S200 10/300 GL (Healthcare) gel filtration column in Tris buffered saline (pH 8.0), prior to formation of tetramers by addition to PE Streptavidin (#554061, BD Pharmingen). […] In the same manner human MR1 containing a C-terminal cysteine can be refolded with the addition of 5-amino-6-D-ribitylamino-uracil, and subsequently purified by fast protein liquid chromatography (FPLC) to yield MR1 refolded with a novel ribityllumazine metabolite, reduced 7-hydroxy-ribityllumazine (rRL-7-OH). The identity of rRL-7-OH bound to MR1 was confirmed by ESI TOF mass spectrometry, and by determining its structure using X-ray crystallography. The identity of rRL-7-OH bound to MR1 was also confirmed by refolding wild-type MR1 with 5-amino-6-D-ribitylamino-uracil and ^13C-glycolaldehyde to yield MR1-^13C-rRL-7-OH.

Another test concerns control BW cells. Description: MR1 tetramer staining of control BW cells. The class given is cell-based, mouse.
Description: as §1

B1: mouse MR1-rRL-6-CH2OH tetramers: tetramers from mouse wild-type MR1-rRL-6-CH2OH (C-terminal cysteine) (protein, UniProt Q8HWB0 19-341; P01887 21-119, looked up)
Major histocompatibility …: RTHSLRYFRLAVSDPGPVVPEFISVGYVDSHPITTYDSVTRQKEPKAPWMAENLAPDHWERYTQLLRGWQQTFKAELRHLQRHYNHSGLHTYQRMIGCELLEDGSTTGFLQYAYDGQDFIIFNKDTLSWLAMDYVAHITKQAWEANLHELQYQKNWLEEECIAWLKRFLEYGRDTLERTEHPVVRTTRKETFPGITTFFCRAHGFYPPEISMTWMKNGEEIAQEVDYGGVLPSGDGTYQTWLSVNLDPQSNDVYSCHVEHCGRQMVLEAPRESGDILRVSTISGTTILIIALAGVGVLIWRRSQELKEVMYQPTQVNEGSSPS
Beta-2-microglobulin: IQKTPQIQVYSRHPPENGKPNILNCYVTQFHPPHIEIQMLKNGKKIPKVEMSDMSFSKDWSFYILAHTEFTPTETDTYACRVKHASMAEPKTVYWDRDM
modifications: rRL-6-CH2OH ligand; C-terminal cysteine; tetramer
B1: the “Tetramer staining of MAIT TCR-BW hybridomas” value in the test with MAIT TCR-BW hybridomas is reported as “stain”. In the test on control BW cells, the “Tetramer staining of control BW cells” value was “not”.
